B1: TPR t1 (parent)
chain: GACCAAUCUGCCCUCAGAGCUCGAGAACAUCUUCGGAUGCAGAGGAGGCAGGCUUCGGUGGCGCGAUAGCGCCAACGUCCUCAACCUCCAAUGCAUCCCACCACAUGAUGAUGCCUGAAGAGCCUUGGUUUUUUG

Variants of: B1
Test: polymerase ribozyme fitness, log enrichment relative to wild type (log ratio); higher = more active; in vitro selection for triplet polymerase activity
Method in brief: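 Fitness compares each genotype's enrichment to that of the wild type on a logarithmic scale, averaging replicates with inverse-variance weights. The logarithm is base 2. Enrichment came from Illumina sequencing of input and output libraries after one triplicate round of in vitro selection, which included frozen incubation at −7 °C, of PCR-built, transcribed mutant libraries of each subunit of a heterodimeric triplet polymerase ribozyme. Only genotypes with ≥10 input reads and ≥1 read per output were kept.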

Compared with A100U U129A, U116C U130G is lower in “polymerase ribozyme fitness (log ratio)” value: -0.992 for the first, -1.58 for the second.

Compared with G110A G128U, G110A G127C is higher in “polymerase ribozyme fitness (log ratio)” value: -3.47 for the first, -1.94 for the second.

Going from C102A G120U U130G to C98G G120C, the “polymerase ribozyme fitness (log ratio)” value falls from -2.39 to -3.19.

Compared with C104G U106A C124G, G110C U133A is lower in “polymerase ribozyme fitness (log ratio)” value: -3.47 for the first, -4.65 for the second.

Compared with C104A U116A, U96C A100U is higher in “polymerase ribozyme fitness (log ratio)” value: -5.02 for the first, -1.08 for the second.

Compared with G110A G113A, U96G U129C is higher in “polymerase ribozyme fitness (log ratio)” value: -3.95 for the first, -0.569 for the second.

First: C97U U106G
Second: C104U G110A
The “polymerase ribozyme fitness (log ratio)” value of the first is lower: -2.7 for the first, -0.458 for the second.

Compared with G113C G122U, G113C G122A is lower in “polymerase ribozyme fitness (log ratio)” value: -1.42 for the first, -3.11 for the second.

Going from C101A U132A to C104U G120C, the “polymerase ribozyme fitness (log ratio)” value rises from -0.824 to 0.802.

Compared with U96C U106A, C99G G120A is lower in “polymerase ribozyme fitness (log ratio)” value: -1.43 for the first, -7.03 for the second.

Going from C98A U112G to G107A G122A, the “polymerase ribozyme fitness (log ratio)” value rises from -5.66 to -5.18.

Going from G93C C102A to C115U G117A, the “polymerase ribozyme fitness (log ratio)” value rises from -2.96 to -1.61.

Compared with C99A G127C, G113C C124U G127C is higher in “polymerase ribozyme fitness (log ratio)” value: -5.7 for the first, -3.7 for the second.

Compared with G113C G120U, U96C U126C is higher in “polymerase ribozyme fitness (log ratio)” value: -3.23 for the first, -1.7 for the second.

First: A105C G120A A121U
Second: U109C C114U
The “polymerase ribozyme fitness (log ratio)” value of the first is higher: -1.51 for the first, -4.7 for the second.

Going from C94A G113A to C114U U126A, the “polymerase ribozyme fitness (log ratio)” value falls from -0.888 to -3.35.

First: U112A G117A G120U C124G
Second: U106G C114G
The “polymerase ribozyme fitness (log ratio)” value of the first is higher: -1.37 for the first, -3.54 for the second.

G113C G128U and C99A G120C are within 0.2 log units of each other in “polymerase ribozyme fitness (log ratio)” value: -4.01 for the first, -3.95 for the second.

Going from U112G A118G to G113U C114A, the “polymerase ribozyme fitness (log ratio)” value falls from 0.909 to -4.29.

Going from C102A A121U U131C to C101U U106A, the “polymerase ribozyme fitness (log ratio)” value falls from 0.0525 to -0.286.

First: G107U G113A
Second: C104G G113C
The “polymerase ribozyme fitness (log ratio)” value of the first is higher: -3.27 for the first, -6.7 for the second.

Going from C99U C115G to U116C G127A U130G, the “polymerase ribozyme fitness (log ratio)” value rises from -4.9 to -4.14.

Compared with G113U G122A, C101G C102A U130C is lower in “polymerase ribozyme fitness (log ratio)” value: -2.45 for the first, -4.99 for the second.

First: A105U U126A U129A U130G
Second: A95G G117C
The “polymerase ribozyme fitness (log ratio)” value of the first is lower: -6 for the first, -3.87 for the second.

First: A111C U126C
Second: U109A G120C
The “polymerase ribozyme fitness (log ratio)” value of the first is higher: 0.272 for the first, -4 for the second.

Going from C115U U126G to C94A G110U, the “polymerase ribozyme fitness (log ratio)” value rises from -3.36 to -2.28.

First: U96A G120C
Second: C99A U112G C114U
The “polymerase ribozyme fitness (log ratio)” value of the first is higher: 0.228 for the first, -6.6 for the second.

Compared with G117A G128C, G110U C123U is higher in “polymerase ribozyme fitness (log ratio)” value: -3.45 for the first, -1.39 for the second.

Compared with C101U U112C, C101U U112A is lower in “polymerase ribozyme fitness (log ratio)” value: 0.493 for the first, 0.284 for the second.

Compared with U106G C123U G127A, C94U C115A is higher in “polymerase ribozyme fitness (log ratio)” value: -3.09 for the first, -0.137 for the second.

G93C C101A C123A U125A U131A and C97U G113A are the same in “polymerase ribozyme fitness (log ratio)” value: -1.5 for the first, -1.5 for the second.

Going from C99A U132C to C94U G120C, the “polymerase ribozyme fitness (log ratio)” value rises from -4.94 to 0.688.

First: C101G C115U
Second: G107U A111U
The “polymerase ribozyme fitness (log ratio)” value of the first is higher: -3.55 for the first, -4.03 for the second.

First: A108G G113A
Second: C114U G117C
The “polymerase ribozyme fitness (log ratio)” value of the first is higher: -2.47 for the first, -7.14 for the second.

Compared with C102G U112A, C101U U116C A119G U129A is higher in “polymerase ribozyme fitness (log ratio)” value: -5.7 for the first, 1.01 for the second.

First: G93U A121U
Second: G110C A118U
The “polymerase ribozyme fitness (log ratio)” value of the first is higher: 1.23 for the first, -4.26 for the second.

Going from G93U A95U C97G G120U C124U to C102U A119G, the “polymerase ribozyme fitness (log ratio)” value rises from -6.74 to -0.237.

Compared with C115U U133A, U109C U132A is lower in “polymerase ribozyme fitness (log ratio)” value: -0.794 for the first, -4.52 for the second.

Going from G110U A121C to G107A A108G G120A C124A, the “polymerase ribozyme fitness (log ratio)” value falls from -2.17 to -3.55.

Going from U106G G117C to C101G U133G, the “polymerase ribozyme fitness (log ratio)” value falls from -1.59 to -2.02.

Going from C102A U125G to G93U U96G, the “polymerase ribozyme fitness (log ratio)” value rises from -2.8 to -1.89.

For G110C G128U, the “polymerase ribozyme fitness (log ratio)” value was -4.78.
